Experimental data from patent US6020166, “Nucleic acid encoding an altered telomere repeat binding factor 2” (The Rockfeller University).

T1: TRF1 purified from HeLa (Homo sapiens, UniProt P54274 SEQ:1-439)
T1 chain: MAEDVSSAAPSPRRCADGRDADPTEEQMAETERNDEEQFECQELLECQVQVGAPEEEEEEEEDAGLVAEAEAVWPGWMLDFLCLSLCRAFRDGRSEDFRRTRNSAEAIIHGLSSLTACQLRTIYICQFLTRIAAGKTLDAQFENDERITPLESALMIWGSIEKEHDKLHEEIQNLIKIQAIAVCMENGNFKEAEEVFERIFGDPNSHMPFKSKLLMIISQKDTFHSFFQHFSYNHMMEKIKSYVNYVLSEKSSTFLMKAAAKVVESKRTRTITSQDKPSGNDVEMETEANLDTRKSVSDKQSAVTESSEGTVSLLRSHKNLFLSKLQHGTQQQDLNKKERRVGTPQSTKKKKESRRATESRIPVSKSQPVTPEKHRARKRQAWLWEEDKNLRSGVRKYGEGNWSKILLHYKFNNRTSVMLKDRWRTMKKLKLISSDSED

T2: GFP-TRF1 (Homo sapiens, UniProt P54274 SEQ:1-439)
T2 chain: T1 chain

T3: TRF1 derivative II (Homo sapiens, UniProt P54274 SEQ:1-439)
T3 chain: T1 chain

T4: TRF1 full length (Homo sapiens, UniProt P54274 SEQ:1-439)
T4 chain: T1 chain

T5: TRF1 delta263-376 (Homo sapiens, internal deletion 263-376)
T5 chain: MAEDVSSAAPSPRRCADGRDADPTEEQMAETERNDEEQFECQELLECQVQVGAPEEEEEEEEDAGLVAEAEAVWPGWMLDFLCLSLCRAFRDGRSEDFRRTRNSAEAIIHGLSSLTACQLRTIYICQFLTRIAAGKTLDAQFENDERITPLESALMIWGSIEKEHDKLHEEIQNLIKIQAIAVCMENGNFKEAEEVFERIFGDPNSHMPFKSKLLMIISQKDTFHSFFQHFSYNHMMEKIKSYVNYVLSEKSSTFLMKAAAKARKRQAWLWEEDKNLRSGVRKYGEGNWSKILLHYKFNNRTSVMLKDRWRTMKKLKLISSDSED

B1: [TTAGGG]12 probe (142 bp pTH12 fragment) (dsDNA)
DNA 1: TTAGGGTTAGGGTTAGGGTTAGGGTTAGGGTTAGGGTTAGGGTTAGGGTTAGGGTTAGGGTTAGGGTTAGGG
DNA 2: CCCTAACCCTAACCCTAACCCTAACCCTAACCCTAACCCTAACCCTAACCCTAACCCTAACCCTAACCCTAA
B2: [TTAGGG]6 permuted probes (dsDNA)
DNA 1: TTAGGGTTAGGGTTAGGGTTAGGGTTAGGGTTAGGG
DNA 2: CCCTAACCCTAACCCTAACCCTAACCCTAACCCTAA

What was measured:
TRF1 purified from HeLa [1] = biological target: T1, TRF1 purified from HeLa; experiment: EMSA; bend 57 and 59 degrees; competed by TTAGGG plasmid; conditions: chain copies: 2 stated; label: 32P
Method: (§1) DNA bending assay: PCR primers were used to generate DNA fragments with the composition indicated in FIG. 9 using pTH3, pTH6, and pTH12 [Zhong et al., 1992, supra] as templates, which contain 3, 6, and 12 tandem TTAGGG repeats, respectively. The products were end-labelled with ^32P-γ-ATP and polynucleotide kinase and the labelled fragments were isolated by preparative acrylamide gel-electrophoresis. Gel-shift reactions with partially purified HeLa TRF1 were performed as described above and the migration of the complexes was analyzed as described by Ferrari et al. [Ferrari et al., 1992, supra], and Thompson and Landy [*Nucl. Acids Res.*, 16:9687–9705 (1988)].
(§2) Labeled DNA probes were incubated with purified HeLa TRF1 under conditions in which one TRF1 dimer binds per probe molecule [Zhong et al., 1992, supra] and the mobility of the resulting complexes was analyzed on native polyacrylamide gels. The permuted sets of fragments had the same electrophoretic mobility as expected from their equal lengths. […] As shown in FIG. 9B for the 6mer and 12mer probes, an effect of the position of the hTRF1 binding site within the probes was observed. Slower migrating complexes were obtained when the binding site for hTRF1 was located more centrally in the DNA molecule, consistent with the induction of DNA bending upon hTRF1 binding.

GFP-TRF1 = biological target: T2, GFP-TRF1; experiment: EMSA; binds as homodimer; conditions: tags: N-terminal GFP; TRF1 start codon ATG to ATT; chain copies: 2 stated; label: 32P
From the text: (§3) Coupled in vitro transcription/translation: TRF1 deletion mutants used for the in vitro coupled transcription/translation experiments were cloned in the vector pET28(a) (Promega) in the NcoI and EcoRI sites using PCR-generated fragments. The GFP-TRF1 fusion product was cloned in pBluescriptKS+. PCR-directed mutagenesis was used to eliminate from this construct the start codon of the TRF1 gene by mutating it from ATG to ATT in order to suppress the occurrence of internal translation at this position. The GFP sequence was obtained from pS65T-C I (Clontech). Expression of TRF1 derivatives was achieved by using a rabbit reticulocyte lysate system (Promega) using reaction conditions essentially as described by the supplier. Briefly, between 0.2 to 1 µg of total plasmid DNA was used per 20 µl reaction containing T7 RNA polymerase in the presence of ^35S-methionine (to visualize products on SDS-PAGE) or without labeled amino acids (for gel-shift assays). After the transcription/translation reaction samples were diluted 1:5 with the addition of 80 µl of buffer D [Chong et al., 1995, supra]. Of this mixture, 0.5–5 µl was used in gel-shift reactions.
(§4) Gel-shift assays: Gel-shift assays were performed as described previously [Zhong et al., 1992, supra] using labeled restriction fragments as probes. […]

TRF1 derivative II = biological target: T3, TRF1 derivative II; experiment: EMSA; binds as homodimer; conditions: tags: N-terminal 43 aa polylinker-encoded addition; chain copies: 2 stated; label: 32P
From the text: as §3, §4

TRF1 full length = biological target: T4, TRF1 full length; experiment: EMSA; conditions: label: 32P
From the text: as §3, §4

TRF1 delta263-376 = biological target: T5, TRF1 delta263-376; experiment: EMSA; dimerization domain fused to Myb; conditions: label: 32P
From the text: as §3, §4

TRF1 deltaN-376 = TRF1 deltaN-376 (Homo sapiens, UniProt P54274 SEQ:1-439, deletion of N-terminus to 376); experiment: EMSA; Myb domain without dimerization domain; conditions: label: 32P
From the text: as §3, §4

TRF1 deltaN-28 = TRF1 deltaN-28 (Homo sapiens, UniProt P54274 SEQ:1-439, deletion of first 28 aa); experiment: EMSA; activity unaffected; conditions: label: 32P
From the text: as §3, §4

TRF1 deltaN-46 = TRF1 deltaN-46 (Homo sapiens, UniProt P54274 SEQ:1-439, deletion of first 46 aa); experiment: EMSA; activity unaffected; conditions: label: 32P
From the text: as §3, §4

TRF1 deltaN-196 = TRF1 deltaN-196 (Homo sapiens, UniProt P54274 SEQ:1-439, deletion of N-terminus to 196); experiment: EMSA; lacks dimerization domain; conditions: label: 32P
From the text: as §3, §4

TRF1 purified from HeLa [2] = biological target: T1, TRF1 purified from HeLa; experiment: EMSA; bend 64-66 degrees; competed by TTAGGG plasmid; conditions: chain copies: 2 stated; label: 32P
Method: as §1, §2

Binder | binding result (TRF1 purified from HeLa [1]) | binding result (GFP-TRF1) | binding result (TRF1 derivative II) | binding result (TRF1 full length) | binding result (TRF1 delta263-376) | binding result (TRF1 deltaN-376) | binding result (TRF1 deltaN-28) | binding result (TRF1 deltaN-46) | binding result (TRF1 deltaN-196) | binding result (TRF1 purified from HeLa [2])
B1 | binds | binds | binds | binds | no binding | no binding | binds | binds | no binding | 
B2 |  |  |  |  |  |  |  |  |  | binds
